Drawing on article PMC9154775, this text covers Kd for one substance.

The test has as its target hC3nb1-K57-ScFc (llama | bovine). The test is described as follows: SPR.

In turn, human Complement C3 (natural protein) came in with an equilibrium dissociation constant (Kd) of 3.7 nM.

The term Kd denotes the equilibrium constant for the complex coming apart.
